Here are results for 13 substances from the supplement of paper PMC5998384.

For data set [1], the system named is HeLa Kyoto. Description: melting temperature (median over replicates), in situ; higher = more thermally stable.
Data set [2] deals with HeLa Kyoto. Kind of data set: thermal stability score vs G1/S (z-score of summed log2 fold changes over temperatures); higher = more thermally stable than in G1/S.
[3] abbreviates: cell cycle stage: early G1 (4.5 h after nocodazole release).
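For melting temperature (median over replicates), in situ in this document: HeLa Kyoto cells synchronized by double thymidine or nocodazole block, proteins quantified by TMT10plex mass spectrometry, three independent biological replicates.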
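For thermal stability score vs G1/S (z-score of summed log2 fold changes over temperatures) in this document: synchronized HeLa Kyoto cells, proteins quantified by TMT10plex mass spectrometry, three biological replicates, mitosis taken 0.5 h after nocodazole release, G1/S directly after double thymidine block.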

Chain of LDHAL6A (chain, as listed by the source): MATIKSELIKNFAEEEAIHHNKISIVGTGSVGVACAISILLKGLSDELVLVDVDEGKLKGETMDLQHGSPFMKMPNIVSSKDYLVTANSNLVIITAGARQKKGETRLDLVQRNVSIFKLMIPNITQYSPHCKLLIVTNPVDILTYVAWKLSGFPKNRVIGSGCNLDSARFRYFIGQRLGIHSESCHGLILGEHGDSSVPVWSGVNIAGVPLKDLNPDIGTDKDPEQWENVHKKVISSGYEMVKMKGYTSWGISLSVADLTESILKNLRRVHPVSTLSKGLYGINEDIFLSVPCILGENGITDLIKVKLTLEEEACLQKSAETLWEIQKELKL

In the data set on HeLa Kyoto [1] (cell cycle stage: G1/S), LDHAL6A came in with a melting temperature of 61.6 °C. Further, the thermal stability score is -1.33 with HeLa Kyoto [2] (setting [3]) and -1.23 in the data set with HeLa Kyoto [2] (cell cycle stage: mitosis).
On to “MAACRALKAVLVDLSGTLHIEDAAVPGAQEALKRLRGASVIIRFVTNTTKESKQDLLERLRKLEFDISEDEIFTSLTAARSLLERKQVRPMLLVDDRALPDFKGIQTSDPNAVVMGLAPEHFHYQILNQAFRLLLDGAPLIAIHKARYYKRKDGLALGPGPFVTALEYATDTKATVVGKPEKTFFLEALRGTGCEPEEAVMIGDDCRDDVGGAQDVGMLGILVKTGKYRASDEEKINPPPYLTCESFPHAVDHILQHLL [HDHD2]”, for which the melting temperature in the data set with HeLa Kyoto [1] (cell cycle stage: G1/S) worked out at 57.3 °C; with HeLa Kyoto [1] (cell cycle stage: mitosis), 59 °C. Besides, the thermal stability score in the data set with HeLa Kyoto [2] (setting [3]) was -2.07; with HeLa Kyoto [2] (cell cycle stage: mitosis), -2.57.
“MADVINVSVNLEAFSQAISAIQALRSSVSRVFDCLKDGMRNKETLEGREKAFIAHFQDNLHSVNRDLNELERLSNLVGKPSENHPLHNSGLLSLDPVQDKTPLYSQLLQAYKWSNKLQYHAGLASGLLNQQSLKRSANQMGVSAKRRPKAQPTTLVLPPQYVDDVISRIDRMFPEMSIHLSRPNGTSAMLLVTLGKVLKVIVVMRSLFIDRTIVKGYNENVYTEDGKLDIWSKSNYQVFQKVTDHATTALLHYQLPQMPDVVVRSFMTWLRSYIKLFQAPCQRCGKFLQDGLPPTWRDFRTLEAFHDTCRQ [MED27]”: in the data set with HeLa Kyoto [1] (cell cycle stage: G1/S), the melting temperature was found to be 48.5 °C. The values for the thermal stability score with HeLa Kyoto [2] (setting [3]) and in the data set on HeLa Kyoto [2] (cell cycle stage: mitosis) were -0.132 and 0.247, respectively.
“MAFSQVQCLDDNHVNWRSSESKPEFFYSEEQRLALEALVARGRDAFYEVLKRENIRDFLSELELKRILETIEVYDPGSEDPRGTGPSQGPEDNGVGDGEEASGADGVPIEAEPLPSLEYWPQKSDRSIPQLDLGWPDTIAYRGVTRASVYMQPPIDGQAHIKEVVRKMISQAQKVIAVVMDMFTDVDIFKDLLDAGFKRKVAVYIIVDESNVKYFLHMCERACMHLGHLKNLRVRSSGGTEFFTRSATKFKGALAQKFMFVDGDRAVCGSYSFTWSAARTDRNVISVLSGQVVEMFDRQFQELYLMSHSVSLKGIPMEKEPEPEPIVLPSVVPLVPAGTVAKKLVNPKYALVKAKSVDEIAKISSEKQEAKKPLGLKGPALAEHPGELPELLPPIHPGLLHLERANMFEYLPTWVEPDPEPGSDILGYINIIDPNIWNPQPSQMNRIKIRDTSQASAQHQLWKQSQDSRPRPEPCPPPEPSAPQDGVPAENGLPQGDPEPLPPVPKPRTVPVADVLARDSSDIGWVLELPKEEAPQNGTDHRLPRMAGPGHAPLQRQLSVTQDDPESLGVGLPNGLDGVEEEDDDDYVTLSDQDSHSGSSGRGPGPRRPSVASSVSEEYFEVREHSVPLRRRHSEQVANGPTPPPRRQLSAPHITRGTFVGPQGGSPWAQSRGREEADALKRMQAQRSTDKEAQGQQFHHHRVPASGTRDKDGFPGPPRYRSAADSVQSSTRNAGPAMAGPHHWQAKGGQVPRLLPDPGSPRLAQNARPMTDGRATEEHPSPFGIPYSKLSQSKHLKARTGGSQWASSDSKRRAQAPRDRKDP [FAM83G]” yielded a melting temperature in the data set on HeLa Kyoto [1] (cell cycle stage: G1/S) of 51.3 °C. Moreover, the thermal stability score in the data set on HeLa Kyoto [2] (setting [3]) came to 1.03; in the data set on HeLa Kyoto [2] (cell cycle stage: mitosis), 0.873.
With “MGPEALSSLLLLLLVASGDADMKGHFDPAKCRYALGMQDRTIPDSDISASSSWSDSTAARHSRLESSDGDGAWCPAGSVFPKEEEYLQVDLQRLHLVALVGTQGRHAGGLGKEFSRSYRLRYSRDGRRWMGWKDRWGQEVISGNEDPEGVVLKDLGPPMVARLVRFYPRADRVMSVCLRVELYGCLWRDGLLSYTAPVGQTMYLSEAVYLNDSTYDGHTVGGLQYGGLGQLADGVVGLDDFRKSQELRVWPGYDYVGWSNHSFSSGYVEMEFEFDRLRAFQAMQVHCNNMHTLGARLPGGVECRFRRGPAMAWEGEPMRHNLGGNLGDPRARAVSVPLGGRVARFLQCRFLFAGPWLLFSEISFISDVVNNSSPALGGTFPPAPWWPPGPPPTNFSSLELEPRGQQPVAKAEGSPTAILIGCLVAIILLLLLIIALMLWRLHWRRLLSKAERRVLEEELTVHLSVPGDTILINNRPGPREPPPYQEPRPRGNPPHSAPCVPNGSALLLSNPAYRLLLATYARPPRGPGPPTPAWAKPTNTQAYSGDYMEPEKPGAPLLPPPPQNSVPHYAEADIVTLQGVTGGNTYAVPALPPGAVGDGPPRVDFPRSRLRFKEKLGEGQFGEVHLCEVDSPQDLVSLDFPLNVRKGHPLLVAVKILRPDATKNARNDFLKEVKIMSRLKDPNIIRLLGVCVQDDPLCMITDYMENGDLNQFLSAHQLEDKAAEGAPGDGQAAQGPTISYPMLLHVAAQIASGMRYLATLNFVHRDLATRNCLVGENFTIKIADFGMSRNLYAGDYYRVQGRAVLPIRWMAWECILMGKFTTASDVWAFGVTLWEVLMLCRAQPFGQLTDEQVIENAGEFFRDQGRQVYLSRPPACPQGLYELMLRCWSRESEQRPPFSQLHRFLAEDALNTV [DDR1]”, the thermal stability score in the data set with HeLa Kyoto [2] (setting [3]) turned out to be 0.0856; with HeLa Kyoto [2] (cell cycle stage: mitosis) it was 0.38.
As for “MGSQGSPVKSYDYLLKFLLVGDSDVGKGEILESLQDGAAESPYAYSNGIDYKTTTILLDGRRVKLELWDTSGQGRFCTIFRSYSRGAQGILLVYDITNRWSFDGIDRWIKEIDEHAPGVPRILVGNRLHLAFKRQVPTEQARAYAEKNCMTFFEVSPLCNFNVIESFTELSRIVLMRHGMEKIWRPNRVFSLQDLCCRAIVSCTPVHLIDKLPLPVTIKSHLKSFSMANGMNAVMMHGRSYSLASGAGGGGSKGNSLKRSKSIRPPQSPPQNCSRSNCKIS [RAB40C]”, the thermal stability score in the data set with HeLa Kyoto [2] (setting [3]) is -0.589; with HeLa Kyoto [2] (cell cycle stage: mitosis), -0.612.
Consider “MLLLVTSLLLCELPHPAFLLIPEKSDLRTVAPASSLNVRFDSRTMNLSWDCQENTTFSKCFLTDKKNRVVEPRLSNNECSCTFREICLHEGVTFEVHVNTSQRGFQQKLLYPNSGREGTAAQNFSCFIYNADLMNCTWARGPTAPRDVQYFLYIRNSKRRREIRCPYYIQDSGTHVGCHLDNLSGLTSRNYFLVNGTSREIGIQFFDSLLDTKKIERFNPPSNVTVRCNTTHCLVRWKQPRTYQKLSYLDFQYQLDVHRKNTQPGTENLLINVSGDLENRYNFPSSEPRAKHSVKIRAADVRILNWSSWSEAIEFGSDDGNLGSVYIYVLLIVGTLVCGIVLGFLFKRFLRIQRLFPPVPQIKDKLNDNHEVEDEIIWEEFTPEEGKGYREEVLTVKEIT [CSF2RA]”, for which the values for the thermal stability score with HeLa Kyoto [2] (setting [3]) and in the data set with HeLa Kyoto [2] (cell cycle stage: mitosis) were -1.1 and -1.35, respectively.
Regarding “MLRCGGRGLLLGLAVAAAAVMAARLMGWWGPRAGFRLFIPEELSRYRGGPGDPGLYLALLGRVYDVSSGRRHYEPGSHYSGFAGRDASRAFVTGDCSEAGLVDDVSDLSAAEMLTLHNWLSFYEKNYVCVGRVTGRFYGEDGLPTPALTQVEAAITRGLEANKLQLQEKQTFPPCNAEWSSARGSRLWCSQKSGGVSRDWIGVPRKLYKPGAKEPRCVCVRTTGPPSGQMPDNPPHRNRGDLDHPNLAEYTGCPPLAITCSFPL [CYB5D2]”, the thermal stability score is 0.86 with HeLa Kyoto [2] (setting [3]) and -0.244 in the data set on HeLa Kyoto [2] (cell cycle stage: mitosis).
For “MRVLVGGGTGFIGTALTQLLNARGHEVTLVSRKPGPGRITWDELAASGLPSCDAAVNLAGENILNPLRRWNETFQKEVIGSRLETTQLLAKAITKAPQPPKAWVLVTGVAYYQPSLTAEYDEDSPGGDFDFFSNLVTKWEAAARLPGDSTRQVVVRSGVVLGRGGGAMGHMLLPFRLGLGGPIGSGHQFFPWIHIGDLAGILTHALEANHVHGVLNGVAPSSATNAEFAQTLGAALGRRAFIPLPSAVVQAVFGRQRAIMLLEGQKVIPQRTLATGYQYSFPELGAALKEIVA [SDR39U1]”, the figures for the thermal stability score with HeLa Kyoto [2] (setting [3]) and with HeLa Kyoto [2] (cell cycle stage: mitosis) were -0.328 and -0.0339, respectively.
For “MSEDEEKVKLRRLEPAIQKFIKIVIPTDLERLRKHQINIEKYQRCRIWDKLHEEHINAGRTVQQLRSNIREIEKLCLKVRKDDLVLLKRMIDPVKEEASAATAEFLQLHLESVEELKKQFNDEETLLQPPLTRSMTVGGAFHTTEAEASSQSLTQIYALPEIPQDQNAAESWETLEADLIELSQLVTDFSLLVNSQQEKIDSIADHVNSAAVNVEEGTKNLGKAAKYKLAALPVAGALIGGMVGGPIGLLAGFKVAGIAAALGGGVLGFTGGKLIQRKKQKMMEKLTSSCPDLPSQTDKKCS [STX17]”, the thermal stability score was -0.17 in the data set with HeLa Kyoto [2] (setting [3]) and 0.13 in the data set with HeLa Kyoto [2] (cell cycle stage: mitosis).
Regarding “MSKMPAKKKSCFQITSVTTAQVATSITEDTESLDDPDESRTEDVSSEIFDVSRATDYGPEEVCERSSSEETLNNVGDAETPGTVSPNLLLDGQLAAAAAAPANGGGVVSARSVSGALASTLAAAATSAPAPGAPGGPQLAGSSAGPVTAAPSQPPTTCSSRFRVIKLDHGSGEPYRRGRWTCMEYYERDSDSSVLTRSGDCIRHSSTFDQTAERDSGLGATGGSVVVVVASMQGAHGPESGTDSSLTAVSQLPPSEKMSQPTPAQPQSFSVGQPQPPPPPVGGAVAQSSAPLPPFPGAATGPQPMMAAAQPSQPQGAGPGGQTLPPTNVTLAQPAMSLPPQPGPAVGAPAAQQPQQFAYPQPQIPPGHLLPVQPSGQSEYLQQHVAGLQPPSPAQPSSTGAAASPATAATLPVGTGQNASSVGAQLMGASSQPSEAMAPRTGPAQGGQVAPCQPTGVPPATVGGVVQPCLGPAGAGQPQSVPPPQMGGSGPLSAVPGGPHAVVPGVPNVPAAVPAPSVPSVSTTSVTMPNVPAPLAQSQQLSSHTPVSRSSSIIQHVGLPLAPGTHSAPTSLPQSDLSQFQTQTQPLVGQVDDTRRKSEPLPQPPLSLIAENKPVVKPPVADSLANPLQLTPMNSLATSVFSIAIPVDGDEDRNPSTAFYQAFHLNTLKESKSLWDSASGGGVVAIDNKIEQAMDLVKSHLMYAVREEVEVLKEQIKELVERNSLLERENALLKSLSSNDQLSQLPTQQANPGSTSQQQAVIAQPPQPTQPPQQPNVSSA [TSC22D2]”, the results for the thermal stability score with HeLa Kyoto [2] (setting [3]) and in the data set on HeLa Kyoto [2] (cell cycle stage: mitosis) were 0.461 and 0.468, respectively.
With “MTGEKIRSLRRDHKPSKEEGDLLEPGDEEAAAALGGTFTRSRIGKGGKACHKIFSNHHHRLQLKAAPASSNPPGAPALPLHNSSVTANSQSPALLAGTNPVAVVADGGSCPAHYPVHECVFKGDVRRLSSLIRTHNIGQKDNHGNTPLHLAVMLGNKECAHLLLAHNAPVKVKNAQGWSPLAEAISYGDRQMITALLRKLKQQSRESVEEKRPRLLKALKELGDFYLELHWDFQSWVPLLSRILPSDACKIYKQGINIRLDTTLIDFTDMKCQRGDLSFIFNGDAAPSESFVVLDNEQKVYQRIHHEESEMETEEEVDILMSSDIYSATLSTKSISFTRAQTGWLFREDKTERVGNFLADFYLVNGLVLESRKRREHLSEEDILRNKAIMESLSKGGNIMEQNFEPIRRQSLTPPPQNTITWEEYISAENGKAPHLGRELVCKESKKTFKATIAMSQEFPLGIELLLNVLEVVAPFKHFNKLREFVQMKLPPGFPVKLDIPVFPTITATVTFQEFRYDEFDGSIFTIPDDYKEDPSRFPDL [ANKRD13C]”, the figures for the thermal stability score with HeLa Kyoto [2] (setting [3]) and in the data set on HeLa Kyoto [2] (cell cycle stage: mitosis) were -0.894 and -0.663, respectively.
For the substance “MWAFSELPMPLLINLIVSLLGFVATVTLIPAFRGHFIAARLCGQDLNKTSRQQIPESQGVISGAVFLIILFCFIPFPFLNCFVKEQCKAFPHHEFVALIGALLAICCMIFLGFADDVLNLRWRHKLLLPTAASLPLLMVYFTNFGNTTIVVPKPFRPILGLHLDLGILYYVYMGLLAVFCTNAINILAGINGLEAGQSLVISASIIVFNLVELEGDCRDDHVFSLYFMIPFFFTTLGLLYHNWYPSRVFVGDTFCYFAGMTFAVVGILGHFSKTMLLFFMPQVFNFLYSLPQLLHIIPCPRHRIPRLNIKTGKLEMSYSKFKTKSLSFLGTFILKVAESLQLVTVHQSETEDGEFTECNNMTLINLLLKVLGPIHERNLTLLLLLLQILGSAITFSIRYQLVRLFYDV [DPAGT1]”, the thermal stability score was -0.912 in the data set on HeLa Kyoto [2] (setting [3]) and -2.08 in the data set on HeLa Kyoto [2] (cell cycle stage: mitosis).
